# Patent publication US20240409663A1 (CONCEPT TO MEDICINE BIOTECH, published 2024)
# Residue numbers refer to the chain shown, from its start. Where two headings read alike, the source gives them in different places.
# B1: 52H5D3B8-6#-VH1+VL1 (antibody, V domains shown)
# VH: QVQLVQSGAEVKKPGASVKVSCKASGYTFTDYEMHWVRQAPGQGLEWMGAIHPGSGGTAYNQKFKGRVTMTRDTSTSTVYMELSSLRSEDTAVYYCARYYSYAYWGQGTLVTVSS
# VL: DIVMTQTPLSLSVTPGQPASISCRSSQSLVHSNGNTYLQWYLQKPGQSPQLLIYKVSNRFSGVPDRFSGSGSGTDFTLKISRVEAEDVGVYYCFQSIHVPYTFGGGTKLEIK
# notes: humanized
# B2: 52H5D3B8-6#-VH2+VL3 (antibody, V domains shown)
# VH: B1 VH with M48I, R72A, A97T
# VL: B1 VL with Q50K
# notes: humanized
# B3: 52H5D3B8-6# chimeric mAb (antibody, V domains shown)
# VH: QVQLQQSGAELVRPGASVKLSCKALGYTFTDYEMHWVKQTPVHGLEWIGAIHPGSGGTAYNQKFKGKATLTADKFSSTGYMELSSLTSEDSAVYYCTRYYSYAYWGQGTLVTVSA
# VL: B1 VL with I2V, S12P, T14S, P15L, Q17D, P18Q, Q50K, T77I, V88L, Y92F
# notes: CDR3 mutant of the 52H5D3B8 chimeric mAb (human IgG1); also called 52H5D3B8-6#-VH+VL
# Tests used:
# [1] = biological target: T1, human GPC3 on cells (human, UniProt P51654 25-554); assay: FACS, GPC3-CHOK1 cells
# [2] = biological target: T1, human GPC3 on cells; assay: FACS, Huh-7 cells
# [3] = biological target: T1, human GPC3 on cells; assay: FACS, Huh-7 cells; remark: listed apart in the source
# [4] = biological target: T1, human GPC3 on cells; assay: FACS, HEPG2 cells
# [5] = biological target: T1, human GPC3 on cells; assay: FACS, Huh-7 cells; remark: listed apart in the source
# [6] = biological target: T1, human GPC3 on cells; assay: FACS, GPC3-CHOK1 cells; remark: listed apart in the source
# [7] = biological target: T1, human GPC3 on cells; assay: FACS on GPC3-CHOK1 cells, Alexa Fluor 647 anti-human IgG, AF647-MFI
# [8] = biological target: T1, human GPC3 on cells; assay: FACS, Hep3B cells
# [9] = biological target: T1, human GPC3 on cells; assay: FACS, Hep3B cells; remark: listed apart in the source
# [10] = biological target: T1, human GPC3 on cells; assay: FACS, GPC3-CHOK1 cells; remark: listed apart in the source
# [11] = biological target: T1, human GPC3 on cells; assay: FACS, HEPG2 cells; remark: listed apart in the source
# [12] = biological target: T1, human GPC3 on cells; assay: FACS, GPC3-CHOK1 cells; remark: listed apart in the source
# [13] = biological target: T1, human GPC3 on cells; assay: cell-based or functional assay
# [14] = biological target: T1, human GPC3 on cells; assay: FACS, GPC3-CHOK1 cells; remark: listed apart in the source
# [15] = biological target: T1, human GPC3 on cells; assay: FACS, GPC3-CHOK1 cells; remark: listed apart in the source
# [16] = biological target: T1, human GPC3 on cells; assay: FACS, HEPG2 cells; remark: listed apart in the source
# [17] = biological target: T2, human GPC3-his tag protein (human, UniProt P51654 25-559, limits assumed); assay: SPR Biacore 8K, mAb captured, affinity ranking
# T2 construct: recombinant soluble antigen used as analyte in all Biacore runs; also called recombinant GPC3 protein; rhGPC3-His; not shown: His tag
# [18] = biological target: T1, human GPC3 on cells; assay: FACS, Hep3B cells
# Procedure: (§1) To evaluate the antigen binding property, the humanized antibodies were analyzed for their binding to human GPC3 over-expressed CHOK1 cells, HEPG2 cells, Hep3B cells and Huh-7 cells by FACS. Briefly, GPC3-CHOK1 cells, HEPG2 cells, Hep3B cells and Huh-7 cells were firstly incubated with Fc blocking reagent at 4° C. for 15 mins. Cells were washed by FACS buffer and divided to each well with 4-fold serially diluted humanized antibodies starting at 10 μg/mL at 4° C. for 60 mins. Cells were washed by FACS buffer and fixed with 2% PFA at RT for 15 mins. […] The 16 humanized antibodies were separated into two plates.
# [19] = biological target: T1, human GPC3 on cells; assay: FACS, Huh-7 cells
# Procedure: as §1
# [20] = biological target: T1, human GPC3 on cells; assay: FACS, HEPG2 cells
# From the text: (§2) FACS was used to evaluate the binding activity of 52H5D3B8-6 #-VH1+VL1 and 52H5D3B8-6 #-VH2+VL3 with comparison to GC33 (Chugai Pharmaceutical) and Y035 (Carsgen Therapeutics, U.S. Patent Application US20190046659) on human GPC3 over-expressed CHOK1 cells and HEPG2 cells.
# [21] = biological target: T1, human GPC3 on cells; assay: cell-based or functional assay; remark: listed apart in the source
# [22] = biological target: T1, human GPC3 on cells; assay: FACS, HEPG2 cells; remark: listed apart in the source
# Procedure: as §1
# [23] = biological target: T1, human GPC3 on cells; assay: FACS, GPC3-CHOK1 cells
# Procedure: as §1
# [24] = biological target: T1, human GPC3 on cells; assay: FACS, GPC3-CHOK1 cells; remark: listed apart in the source
# From the text: as §2
# [25] = biological target: T2, human GPC3-his tag protein; assay: SPR Biacore, mAb captured on CM5, GPC3-his dilution series (full kinetics)
# [26] = biological target: T1, human GPC3 on cells; assay: cell-based or functional assay; remark: listed apart in the source
# [27] = biological target: T1, human GPC3 on cells; assay: FACS, GPC3-CHOK1 cells; remark: listed apart in the source
# Procedure: To evaluate the antigen binding property, the affinity maturated antibodies were analyzed for their binding to human GPC3 over-expressed CHOK1 cells by FACS as previously described.
# [28] = biological target: T1, human GPC3 on cells; assay: FACS, GPC3-CHOK1 cells; remark: listed apart in the source
# Procedure: (§3) Cell-based binding: FACS was used to evaluate the binding activity of 52H5D3B8, 52H5D3B8-6 # chimeric mAbs and GC33 antibody on human GPC3 over-expressed CHOK1 cells, Hep3B cells and Huh-7 cells.
# (§4) Briefly, GPC3-CHOK1 cells, Hep3B cells or Huh-7 cells were firstly incubated with Fc blocking reagent at 4° C. for 15 mins. Cells were washed by FACS buffer and divided to each well with 3-fold serially diluted 52H5D3B8, 52H5D3B8-6 # chimeric mAbs or GC33 antibody starting at 30 μg/mL at 4° C. for 60 mins. Cells were washed by FACS buffer and fixed with 2% PFA at RT for 15 mins. […] Samples were washed twice with FACS buffer.
# [29] = biological target: T1, human GPC3 on cells; assay: FACS, GPC3-CHOK1 cells; remark: listed apart in the source
# Procedure: as §1
# [30] = biological target: T1, human GPC3 on cells; assay: FACS, Hep3B cells; remark: listed apart in the source
# Procedure: as §1
# [31] = biological target: T1, human GPC3 on cells; assay: FACS, Hep3B cells; remark: listed apart in the source
# Procedure: as §3, §4
# [32] = biological target: T1, human GPC3 on cells; assay: FACS, GPC3-CHOK1 cells; remark: listed apart in the source
# Procedure: Briefly, GPC3-CHOK1 cells were firstly incubated with Fc blocking reagent at 4° C. for 15 mins. Cells were washed by FACS buffer and divided to each well with 3-fold serially diluted 52H5D3B8, 52H5D3B8-1 #, 52H5D3B8-2 #, 52H5D3B8-3 #, 52H5D3B8-4 #, 52H5D3B8-5 #, 52H5D3B8-6 #, 52H5D3B8-7 #, 52H5D3B8-8 #, 52H5D3B8-9 #, 52H5D3B8-10 #, 52H5D3B8-11 #, 52H5D3B8-12 #, 52H5D3B8-13 #, 52H5D3B8-14 # and 52H5D3B8-15# chimeric mAbs starting at 30 μg/mL at 4° C. for 60 mins. Cells were washed by FACS buffer and fixed with 2% PFA at RT for 15 mins. […] Samples were washed twice with FACS buffer.
# [33] = biological target: T2, human GPC3-his tag protein; assay: SPR Biacore 8K, mAb captured, one or two doses GPC3-his
# Procedure: The binding of the optimized antibodies of 52H5D3B8 mAb to human GPC3-his was tested with Biacore using a capture method. A single dose or two doses of human GPC3-his tag protein was injected over captured antibody. All the experiments were carried out on a Biacore 8K. Data analysis was carried out using Biacore 8K evaluation software.
# [34] = biological target: T1, human GPC3 on cells; assay: FACS, HEPG2 cells; remark: listed apart in the source
# Procedure: as §1
# [35] = biological target: T1, human GPC3 on cells; assay: FACS, Huh-7 cells; remark: listed apart in the source
# Procedure: as §3, §4
# [36] = biological target: T1, human GPC3 on cells; assay: FACS, Huh-7 cells; remark: listed apart in the source
# Procedure: as §1
Molecule,Kd [17] [nM],koff [17] [s⁻¹],kon [17] [M⁻¹ s⁻¹],EC50 [18] [µg/mL],EC50 [19] [µg/mL],EC50 [20] [nM],"EC50 of ADCC cytotoxicity (primary NK cells, LDH), HEPG2 cells [21] [nM]","EC50 of ADCC cytotoxicity (primary NK cells, LDH), Huh-7 cells [21] [nM]",EC50 [22] [µg/mL],EC50 [23] [µg/mL],EC50 [24] [nM],Kd [25] [nM],koff [25] [s⁻¹],kon [25] [M⁻¹ s⁻¹],"EC50 of ADCC signaling (Jurkat-hCD16a-NFAT luciferase reporter), HEPG2 cells [26] [nM]","EC50 of ADCC signaling (Jurkat-hCD16a-NFAT luciferase reporter), Huh-7 cells [26] [nM]",also measured
GC33 (Chugai Pharmaceutical) (antibody),,,,,,,,,,,,,,,,,"EC50 [1]: 0.166 µg/mL; EC50 [2]: 0.147 µg/mL; EC50 [3]: 0.953 nM; EC50 [4]: 1.28 nM; EC50 [5]: 0.182 µg/mL; EC50 [6]: 0.993 nM; EC50 (read off the curve) [7]: 0.1 µg/mL; EC50 [8]: 0.375 µg/mL; EC50 [9]: 0.341 µg/mL; EC50 [10]: 0.122 µg/mL; EC50 [11]: 0.745 nM; EC50 [12]: 0.131 µg/mL; EC50 of ADCC cytotoxicity (primary NK cells, LDH), HEPG2 cells [13]: 0.276 nM; EC50 of ADCC cytotoxicity (primary NK cells, LDH), Huh-7 cells [13]: 0.172 nM; EC50 of ADCC signaling (Jurkat-hCD16a-NFAT luciferase reporter), HEPG2 cells [13]: 0.415 nM; EC50 of ADCC signaling (Jurkat-hCD16a-NFAT luciferase reporter), Huh-7 cells [13]: 0.29 nM; EC50 [14]: 0.956 nM; EC50 [15]: 0.784 nM; EC50 [16]: 0.181 µg/mL"
B1,1.97,0.00112,567000,0.0626,0.0362,0.342,0.0845,0.108,0.0411,0.038,0.332,2.24,0.00111,497000,0.176,0.322,
B2,0.962,0.000642,668000,0.0705,0.0384,0.354,0.104,0.106,0.0438,0.0411,0.344,,,,0.174,0.265,EC50 [27]: 0.412 nM
B3,0.425,0.000307,721000,0.0643,0.0347,,,,0.0452,0.035,,0.446,0.000265,595000,,,EC50 [28]: 0.0474 µg/mL; EC50 [29]: 0.0389 µg/mL; EC50 [30]: 0.0664 µg/mL; EC50 [31]: 0.0982 µg/mL; EC50 [32]: 0.0601 µg/mL; Kd [33]: 0.368 nM; koff [33]: 0.000289 s⁻¹; kon [33]: 785000 M⁻¹ s⁻¹; EC50 [34]: 0.0469 µg/mL; EC50 [35]: 0.0501 µg/mL; EC50 [36]: 0.0378 µg/mL
